From patent US20160230155A1

Molecular target: M6P receptors expressed on MEF-1 fibroblasts
Assay: cell-based or functional assay

B1: sulfamidase (SEQ ID NO:2) chemically modified according to the known method (WO 2008/109677): 20 mM sodium meta-periodate 0 °C 6.5 h, dialysis, 100 mM sodium … (enzyme)
chain: GSRPRNALLLLADDGGFESGAYNNSAIATPHLDALARRSLLFRNAFTSVSSCSPSRASLLTGLPQHQNGMYGLHQDVHHFNSFDKVRSLPLLLSQAGVRTGIIGKKHVGPETVYPFDFAYTEENGSVLQVGRNITRIKLLVRKFLQTQDDRPFFLYVAFHDPHRCGHSQPQYGTFCEKFGNGESGMGRIPDWTPQAYDPLDVLVPYFVPNTPAARADLAAQYTTVGRMDQGVGLVLQELRDAGVLNDTLVIFTSDNGIPFPSGRTNLYWPGTAEPLLVSSPEHPKRWGQVSEAYVSLLDLTPTILDWFSIPYPSYAIFGSKTIHLTGRSLLPALEAEPLWATVFGSQSHHEVTMSYPMRSVQHRHFRLVHNLNFKMPFPIDQDFYVSPTFQDLLNRTTAGQPTGWYKDLRHYYYRARWELYDRSRDPHETQNLATDPRFAQLLEMLRDQLAKWQWETHDPWVCAPDGVLEEKLSPQCQPLHNEL
modifications: N-glycans at N(21), N(131), N(244), N(393) of SEQ ID NO:1 disrupted by periodate oxidation and borohydride reduction; FGly50 about 56% converted to Ser50; methionine 184 and methionine 443 almost completely oxidized
For B1, the receptor mediated endocytosis in MEF-1 cells: specific activity in cell homogenate relative to unmodified recombinant sulfamidase (% of unmodified recombinant sulfamidase) was under 10.

B2: sulfamidase (SEQ ID NO:2) chemically modified according to new method 1: 20 mM sodium meta-periodate 0 °C 120 min, 50 mM sodium borohydride 0 °C 120 min (enzyme)
chain: GSRPRNALLLLADDGGFESGAYNNSAIATPHLDALARRSLLFRNAFTSVSSCSPSRASLLTGLPQHQNGMYGLHQDVHHFNSFDKVRSLPLLLSQAGVRTGIIGKKHVGPETVYPFDFAYTEENGSVLQVGRNITRIKLLVRKFLQTQDDRPFFLYVAFHDPHRCGHSQPQYGTFCEKFGNGESGMGRIPDWTPQAYDPLDVLVPYFVPNTPAARADLAAQYTTVGRMDQGVGLVLQELRDAGVLNDTLVIFTSDNGIPFPSGRTNLYWPGTAEPLLVSSPEHPKRWGQVSEAYVSLLDLTPTILDWFSIPYPSYAIFGSKTIHLTGRSLLPALEAEPLWATVFGSQSHHEVTMSYPMRSVQHRHFRLVHNLNFKMPFPIDQDFYVSPTFQDLLNRTTAGQPTGWYKDLRHYYYRARWELYDRSRDPHETQNLATDPRFAQLLEMLRDQLAKWQWETHDPWVCAPDGVLEEKLSPQCQPLHNEL
modifications: N-glycans at N(21), N(131), N(244), N(393) of SEQ ID NO:1 disrupted by periodate oxidation and borohydride reduction; FGly50 about 45% converted to Ser50
With B2 the receptor mediated endocytosis in MEF-1 cells: specific activity in cell homogenate relative to unmodified recombinant sulfamidase (% of unmodified recombinant sulfamidase) was under 10.

B3: sulfamidase (SEQ ID NO:2) chemically modified according to new method 2: 20 mM sodium meta-periodate 0 °C 120 min, 10 mM sodium borohydride 0 °C 120 min (enzyme)
chain: GSRPRNALLLLADDGGFESGAYNNSAIATPHLDALARRSLLFRNAFTSVSSCSPSRASLLTGLPQHQNGMYGLHQDVHHFNSFDKVRSLPLLLSQAGVRTGIIGKKHVGPETVYPFDFAYTEENGSVLQVGRNITRIKLLVRKFLQTQDDRPFFLYVAFHDPHRCGHSQPQYGTFCEKFGNGESGMGRIPDWTPQAYDPLDVLVPYFVPNTPAARADLAAQYTTVGRMDQGVGLVLQELRDAGVLNDTLVIFTSDNGIPFPSGRTNLYWPGTAEPLLVSSPEHPKRWGQVSEAYVSLLDLTPTILDWFSIPYPSYAIFGSKTIHLTGRSLLPALEAEPLWATVFGSQSHHEVTMSYPMRSVQHRHFRLVHNLNFKMPFPIDQDFYVSPTFQDLLNRTTAGQPTGWYKDLRHYYYRARWELYDRSRDPHETQNLATDPRFAQLLEMLRDQLAKWQWETHDPWVCAPDGVLEEKLSPQCQPLHNEL
modifications: N-glycans of SEQ ID NO:1 sites disrupted by periodate oxidation and borohydride reduction; FGly50 about 11.5% converted to Ser50
B3 was tested, and the receptor mediated endocytosis in MEF-1 cells: specific activity in cell homogenate relative to unmodified recombinant sulfamidase (% of unmodified recombinant sulfamidase) was under 10.
